According to paper PMC4116301:

Legend:
[1] = target: microtubules (tubulin purified from cow brains) (cow) (UniProt Q6B856); assay: co-sedimentation
[2] = target: Xenopus laevis Bonsai CENP-E (Xenopus laevis); assay: single-molecule fluorescence brightness and photobleaching steps

Substance | Kd [1] | stoichiometry N [2]
Xenopus laevis full-length CENP-E (natural protein) | 24 nM | 
Xenopus laevis Bonsai CENP-E |  | 2
